Measurements: patent US20160304615A1

Tests used:
[1] = molecular target: C-terminal biotin-labeled EGFRvIII junctional peptide (human); assay: ELISA
[2] = molecular target: EGFRvIII junctional peptide (human); assay: ELISA
[3] = molecular target: EGFRvIII-mmh (human) (UniProt P00533); assay: ELISA
[4] = molecular target: N-terminal biotin-labeled EGFRvIII junctional peptide (human); assay: ELISA
[5] = molecular target: EGFRvIII-mFc (human); assay: SPR 37C, mAb-capture
[6] = molecular target: EGFRvIII-mmh (human) (UniProt P00533); assay: SPR 37C, mAb-capture
[7] = molecular target: full-length hEGFRvIII on cells (human) (UniProt P00533); assay: cell-based or functional assay
[8] = molecular target: EGFRvIII-mFc (human); assay: SPR 37C, receptor-capture
[9] = molecular target: wild-type human EGFR on cells (human) (UniProt P00533); assay: FACS, A431 cells, PE secondary antibody
[10] = molecular target: wild-type human EGFR on cells (human) (UniProt P00533); assay: FACS, A431 cells, directly labeled antibody
[11] = molecular target: EGFRvIII-mmh (human) (UniProt P00533); assay: SPR, captured hEGFRvIII-mmh; no first antibody
[12] = molecular target: full-length hEGFRvIII on cells (human) (UniProt P00533); assay: FACS, HEK293/EGFRvIII cells, PE secondary antibody
[13] = molecular target: full-length hEGFRvIII on cells (human) (UniProt P00533); assay: FACS, HEK293/EGFRvIII cells, directly labeled antibody
[14] = molecular target: EGFRvIII-mmh (human) (UniProt P00533); assay: SPR coinjection; competitor (first antibody): Control I
[15] = molecular target: EGFRvIII-mmh (human) (UniProt P00533); assay: SPR coinjection; competitor (first antibody): Control II
[16] = molecular target: EGFRvIII-mmh (human) (UniProt P00533); assay: SPR coinjection; competitor (first antibody): Control III
[17] = molecular target: EGFRvIII-mmh (human) (UniProt P00533); assay: SPR coinjection; competitor (first antibody): H1H1863N2(Fuc-)
[18] = molecular target: EGFR-mmh (human) (UniProt P00533); assay: ELISA
[19] = molecular target: EGFR-mFc (human); assay: SPR 37C, receptor-capture

Sequence of Control III: Humanized anti-EGFRvIII antibody (hIgG1) with the variable domains of the "hu806" antibody of US 2010/0056762 (VH): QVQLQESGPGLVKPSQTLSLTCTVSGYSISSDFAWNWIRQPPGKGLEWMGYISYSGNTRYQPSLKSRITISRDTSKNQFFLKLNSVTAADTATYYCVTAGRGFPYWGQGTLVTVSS
Sequence of Control III: Humanized anti-EGFRvIII antibody (hIgG1) with the variable domains of the "hu806" antibody of US 2010/0056762 (VL): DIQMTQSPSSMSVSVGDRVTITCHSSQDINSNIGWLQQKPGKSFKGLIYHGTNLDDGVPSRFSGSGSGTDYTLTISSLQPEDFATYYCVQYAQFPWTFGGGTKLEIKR

Row | EC50 [3] [nM] | Kd [5] [nM] | T½ [5] [min] | Kd [6] [nM] | T½ [6] [min] | Fluorescent Intensity of vesicles 4° C., Mean [7] | Fluorescent Intensity of vesicles 37° C., Mean [7] | Kd [8] [nM] | T½ [8] [h] | A431 MFI [9] [MFI] | A431 MFI [10] [MFI] | Second Antibody Binding Response (RU) [11] [RU] | HEK293/EGFRvIII MFI [12] [MFI] | HEK293/EGFRvIII MFI [13] [MFI] | Second Antibody Binding Response (RU) [14] [RU] | Second Antibody Binding Response (RU) [15] [RU] | Second Antibody Binding Response (RU) [16] [RU] | Second Antibody Binding Response (RU) [17] [RU] | koff [5] [s⁻¹] | kon [5] [M⁻¹ s⁻¹] | further results | Substance
1 | 0.0094 | 103 | 1.6 | 1190 | 0.1 | 22000 | 264000 | 9.06 | 0.0483 | 1450 | 9650 | 234 | 272000 | 258000 | 5 | 252 | 254 | 253 | – | – | EC50 [1]: 0.0153 nM; EC50 [2]: 0.118 nM; EC50 [4]: 0.0106 nM | Control I: Human anti-EGFRvIII antibody (IgG1) with the variable domains of the "13.1.2" antibody of U.S. Pat. No. 7,736,644
2 | 0.0057 | 2.02 | 28 | 150 | 2 | 20300 | 615000 | 0.059 | 2.63 | 5580 | 15700 | 247 | 313000 | 313000 | 258 | 6 | 13 | 191 | 0.000408 | 202000 | EC50 [18]: 0.0095 nM; koff [6]: 0.00733 s⁻¹; kon [6]: 49000 M⁻¹ s⁻¹; Kd [19]: 0.329 nM; T½ [19]: 79 min; koff [19]: 0.000146 s⁻¹; kon [19]: 444000 M⁻¹ s⁻¹; koff [8]: 7.31e-05 s⁻¹; kon [8]: 1.25e+06 M⁻¹ s⁻¹; Fold Above Background [9]: 3.9 fold; Fold Above Background [10]: 2.3 fold; Ratio (EGFRvIII MFI/parental MFI) [12]: 308; Ratio (EGFRvIII MFI/parental MFI) [13]: 87.4 | Control II: Chimeric anti-EGFRvIII antibody (hIgG1) with the variable domains of the "ch806" antibody of U.S. Pat. No. 7,589,180
3 | – | 1.18 | 39 | – | – | – | – | 0.00067 | 192 | – | – | – | – | – | – | – | – | – | – | – | Kd [19]: 0.215 nM; T½ [19]: 187 min | Control III: Humanized anti-EGFRvIII antibody (hIgG1) with the variable domains of the "hu806" antibody of US 2010/0056762
4 | – | 1.95 | 31 | 82 | 1 | – | – | – | – | 4240 | – | – | 997000 | – | – | – | – | – | 0.000371 | 191000 | koff [6]: 0.0159 s⁻¹; kon [6]: 194000 M⁻¹ s⁻¹; Fold Above Background [9]: 3 fold; Ratio (EGFRvIII MFI/parental MFI) [12]: 85 | Control V: Human anti-EGFRvIII antibody (IgG1) with the variable domains of the "131" antibody of U.S. Pat. No. 7,736,644 B2
